In general, stoichiometry N refers to a count of units in the complex or per binding partner.

This note sets out measurements from article PMC6620040, “Structure of the DNA-Bound Spacer Capture Complex of a Type II CRISPR-Cas System” (Molecular Cell, 2019).

B2: Cas1 protein of the CRISPR3-Cas system from S. thermophilus DGCC7710, bearing a StrepII tag (natural protein, Streptococcus thermophilus DGCC7710)
chain: MAGWRTVVVNIHSKLSYKNNHLIFRNSYKTEMIHLSEIDILLLETTDIVLTTMLVKRLVDENILVIFCDDKRLPTAFLTPYYARHDSSLQIARQIAWKENVKCEVWTAIIAQKILNQSYYLGECSFFEKSQSIMELYHGLERFDPSNREGHSARIYFNTLFGNDFTRESDNDINAALDYGYTLLLSMFAREVVVCGCMTQIGLKHANQFNQFNLASDIMEPFRPIIDRIVYQNRHNNFVKIKKELFSIFSETYLYNGKEMYLSNIVSDYTKKVIKALNQLGEEIPEFRI
notes: Cas1 of the type II-A CRISPR3-Cas system, Streptococcus thermophilus DGCC7710; cloned into pETDUET-1 (pCas1Strep); Forms dimers with two conformations (Cas1A, Cas1B) in the structures; also called StCas1; Strep-tagged Cas1; source: E. coli BL21 (DE3), co-expressed with the rest of the CRISPR3-Cas locus, in lysate; purified as a complex (Strep-Trap HP, Superdex S200) for cryo-EM; not shown: …

In data set [1] the target is B2. Kind of data set: pull-down; StrepII-tagged Cas1 co-expressed in E. coli with the CRISPR3-Cas locus (all four proteins; also the variants lacking Cas9, the CRISPR array or tracrRNA); StrepTrap column, then size-exclusion chromatography (Superdex S200), SDS-PAGE; 10 mM Tris-HCl pH 7.5, 300 mM KCl, 1 mM EDTA, 1 mM DTT. The following applies: partners not purified. A general note: Size exclusion chromatography separates by hydrodynamic size, large species first.

Data set [2] concerns the molecule itself. The experiment in a line: cryo-EM structure; Strep-Trap- and SEC-purified Cas9-Cas1-Cas2-Csn2 sample after DNase I treatment and gel filtration (25 mM Tris pH 7.5, 150 mM NaCl, 1 mM TCEP), graphene oxide coated grids; monomer Cas1_(8)-Cas2_(4)-Csn2_(8) at 3.2 Å (D2), dimer Cas1_(24)-Cas2_(12)-Csn2_(16) at 7.2 Å (D2), filament unit at 7.7 Å (D2); duplex DNA in the central channel.

B1: Cas2 protein of the CRISPR3-Cas system from S. thermophilus DGCC7710 (natural protein, Streptococcus thermophilus DGCC7710)
chain: MSYRYMRMILMFDMPTDTAEERKAYRKFRKFLLSEGFIMHQFSVYSKLLLNHTANTAMVGRLKANNPKKGNITILTVTEKQFARMIYLYGDKNTSIANSEERLVFLGDNYCDED
notes: Cas2 of the type II-A CRISPR3-Cas system, Streptococcus thermophilus DGCC7710; expressed from the CRISPR3 locus plasmid; source: E. coli BL21 (DE3), expressed from the CRISPR3 locus plasmid (pCas1- and derivatives), in lysate; purified as a complex (Strep-Trap HP, Superdex S200) for cryo-EM
As for B1, the binding result in data set [1] is “binds”. Besides, the “stoichiometry N” value in data set [2] came out at 2. Take B2: the “stoichiometry N” value in data set [2] turned out to be 2.

B3: Csn2 protein of the CRISPR3-Cas system from S. thermophilus DGCC7710 (natural protein, Streptococcus thermophilus DGCC7710)
chain: MKINFSLLDEPMEVNLGTVLVIEDVSVFAQLVKEFYQYDEQSNLTIFDSKIRSIRSSELLLITDILGYDINTSQVLKLLHTDIVSQLNDKPEVRSEIDSLVSLITDIIMAECIENELDIEYDEITLLELIKALGVRIETKSCTVFEKIFEILQIFKYLVKKRILVFVNSLSYFSKDEIYQILEYTKLSQADVLFLEPRQIEGIQQFILDKDYILMPYNN
notes: Csn2 of the type II-A CRISPR3-Cas system, Streptococcus thermophilus DGCC7710; expressed from the CRISPR3 locus plasmid; Tetramer (dimer of dimers, conformations Csn2A and Csn2B) in the structures; one Ca2+ per chain modelled; also called StCsn2; Csn2A; source: E. coli BL21 (DE3), expressed from the CRISPR3 locus plasmid (pCas1- and derivatives), in lysate; purified as a complex (Strep-Trap HP, …)
For the molecule B3, the “stoichiometry N” value in data set [2] was 4.
